The record followed here is article PMC8437434, “Hsp40s play complementary roles in the prevention of tau amyloid formation” (eLife, 2021).

In this experiment the target is T1, full-length tau (2N4R), C322S (UniProt P10636-8 1-441, C322S).
T1 construct: microtubule-associated protein tau, longest splice isoform 2N4R, with C322S; 15N-labelled for NMR; also called 15N-tau; source: E. coli BL21 (DE3), purified (Ni-NTA, tag cleaved, Superdex 75); not shown: His6, N-terminal, cleaved
Put plainly: NMR titration; 1H-15N HSQC-TROSY of 200 µM 15N-tau, tau^4R or tau^4R P301S/P301L alone and with twofold excess (400 µM) of chaperone; intensity ratios I/I0; 50 mM HEPES pH 7.0, 50 mM KCl, 1 mM DTT, 25 °C; no heparin. The note with it: both partners purified.

T1 sequence (P10636 other isoform, or with tags, fused parts or gaps C322S | C322S | C322S C322S): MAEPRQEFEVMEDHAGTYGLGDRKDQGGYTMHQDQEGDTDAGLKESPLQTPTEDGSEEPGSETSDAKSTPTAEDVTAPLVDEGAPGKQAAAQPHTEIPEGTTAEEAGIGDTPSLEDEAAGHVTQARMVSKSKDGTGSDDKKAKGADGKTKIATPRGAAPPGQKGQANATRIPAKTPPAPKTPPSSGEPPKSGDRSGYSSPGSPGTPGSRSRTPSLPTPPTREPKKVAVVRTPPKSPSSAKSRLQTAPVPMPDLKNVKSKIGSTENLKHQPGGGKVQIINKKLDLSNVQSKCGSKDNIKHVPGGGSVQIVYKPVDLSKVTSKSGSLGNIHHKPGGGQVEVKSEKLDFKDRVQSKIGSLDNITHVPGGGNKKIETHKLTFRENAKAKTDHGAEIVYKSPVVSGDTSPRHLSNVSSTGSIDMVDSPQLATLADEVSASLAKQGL

B1: DNAJA2 (natural protein)
chain: not shown
notes: DNAJA2, class A J-domain protein; homodimer (90 kDa dimer as printed); also called class A JDP; Hsp40; source: E. coli BL21 (DE3), purified (Ni-NTA, tag cleaved, Superdex 200); not shown: His6, N-terminal, cleaved
Turning to B1, the binding result was “binds”.
